Experimental data published in patent US20170022269A1.

How the values were obtained:
Aβ(1-42) fibrils (human) = Aβ(1-42) fibrils (human) (UniProt P05067); assay: co-pelleting with Aβ(1-42) fibrils, SDS-PAGE, optical density of the heavy chain in pellet / (pellet + supernatant)
[1] = target: Aβ(20-42) globulomer (human); assay: dot blot densitometry, antibody 0.2 µg/ml; column Aβ(20-42) globulomer (reference)
Aβ(20-42) globulomer (human), sequence (peptide, as listed by the source): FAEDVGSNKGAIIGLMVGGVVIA

Aβ(1-42) fibrils (human), sequence (P05067 672-713): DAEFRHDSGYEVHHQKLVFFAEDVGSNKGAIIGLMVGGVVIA

Substance: commercially available antibody 6E10 (Signet, Cat. no. 9320)
- antibody bound to fibrils [%] (Aβ(1-42) fibrils (human)): 98%
- relation between recognition of Aβ(20-42) globulomer and the respective Aβ form [1]: 1
